# Experimental data: article PMC6380423 (mAbs, 2019)
# Columns and labels:
# [1] = target: B cell receptor (BCR) (human (endogenous in Ramos)); experiment: FRET or BRET
# FRET or BRET = target: the molecule itself; experiment: FRET or BRET
molecule,measurement,setting,value
CD19 (from UniProt P15391 20-556) (receptor),normalized FCET at 30 min of BCR stimulation,[1],2.6 units
same,"normalized FCET at 30 min of BCR stimulation, with the CD47xCD19 biAb",[1],1.5 units
same,normalized FCET at 1 hour of BCR stimulation,[1],3.6 units
same,"normalized FCET at 1 hour of BCR stimulation, with the CD47xCD19 biAb",[1],1.9 units
CD20 (receptor) MTTPRNSVNGTFPAEPMKGPIAMQSGPKPLFRRMSSLVGPTQSFFMRESKTLGAVQIMNGLFHIALGGLLMIPAGIYAPICVTVWYPLWGGIMYIISGSLLAATEKNSRKCLVKGKMIMNSLSLFAAISGMILSIMDILNIKISHFLKMESLNFIRAHTPYINIYNCEPANPSEKNSPSTQYCYSIQSLFLGILSVMLIFAFFQELVIAGIVENEWKRTCSRPKSNIVLLSAEEKKEQTIEIKEEVVGLTETSSQPKNEEDIEIIPIQEEEEEETETNFPEPPQDQESSPIENDSSP,"normalized FCET (fold over baseline), with the anti-CD20 mAb rituximab",FRET or BRET,6.7 fold
CD19 (receptor) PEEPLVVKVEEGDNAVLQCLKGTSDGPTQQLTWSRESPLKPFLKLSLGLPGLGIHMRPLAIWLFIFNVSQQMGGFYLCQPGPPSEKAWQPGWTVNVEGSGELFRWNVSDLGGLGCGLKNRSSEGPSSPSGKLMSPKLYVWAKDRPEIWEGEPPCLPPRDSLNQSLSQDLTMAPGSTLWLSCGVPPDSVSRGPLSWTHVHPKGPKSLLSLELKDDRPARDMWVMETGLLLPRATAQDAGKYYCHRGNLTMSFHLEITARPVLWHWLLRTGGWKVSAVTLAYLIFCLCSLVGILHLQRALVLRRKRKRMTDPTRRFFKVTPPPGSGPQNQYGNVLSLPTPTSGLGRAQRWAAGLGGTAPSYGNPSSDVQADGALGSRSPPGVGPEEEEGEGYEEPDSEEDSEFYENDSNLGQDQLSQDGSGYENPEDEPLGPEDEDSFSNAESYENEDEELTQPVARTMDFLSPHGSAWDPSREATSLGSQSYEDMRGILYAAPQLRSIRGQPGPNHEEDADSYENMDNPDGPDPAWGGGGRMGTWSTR,"normalized FCET (fold over baseline), with the bivalent anti-CD19 mAb",FRET or BRET,8.2 fold
